From patent US20220281980A1 (Bristol-Myers Squibb, published 2022)
Positions count from the first letter of the chain named. Blank lines part the entries; values can stand above or below the binder they belong to.

What was measured:
[1] = target: T1, recombinant soluble human MICA*008 antigen (human, UniProt Q29983 24-307); assay: BLI (Octet) sandwich binning on soluble MICA allele 8, row antibody captured; competitor (second antibody): MICA.39
T1 construct: also called huIMICA-his allele *008; recombinant soluble MICA (allele 8)
T1 chain: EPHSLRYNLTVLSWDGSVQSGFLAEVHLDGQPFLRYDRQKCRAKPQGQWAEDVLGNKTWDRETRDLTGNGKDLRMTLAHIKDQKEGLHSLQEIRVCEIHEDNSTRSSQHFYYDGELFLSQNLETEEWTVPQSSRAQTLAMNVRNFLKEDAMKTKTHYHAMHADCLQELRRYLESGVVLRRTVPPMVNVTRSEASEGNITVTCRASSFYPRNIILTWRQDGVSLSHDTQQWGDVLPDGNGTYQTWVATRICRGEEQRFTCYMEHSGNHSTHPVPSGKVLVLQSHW
Method: (§1) The binning experiments were performed on an Octet HTX instrument at 25° C. in HEPES buffered saline (10 mM HEPES pH 7.4, 150 mM NaCl, 0.05% v/v surfactant P20, and 1 mg/mL BSA). Anti-MICA/B antibodies and NKG2D-mFc were captured on anti-Fc tips and remaining capture sites were blocked with an excess of negative control IgG. Recombinant soluble MICA (allele 8) was bound and subsequent binding (“sandwiching”) of anti-MICA/B antibodies was tested.

[2] = target: T1, recombinant soluble human MICA*008 …; assay: BLI (Octet) sandwich binning on soluble MICA allele 8, row antibody captured; competitor (second antibody): MICA.38
Method: as §1

[3] = target: T2, human MICA/B endogenously expressed on HeLa cells (MICA allele *008) (human, UniProt Q29983 24-331); assay: flow cytometry, tumor cells with endogenous MICA/B
T2 construct: it speaks of MICA/B, so MICB may be present as well
T2 chain: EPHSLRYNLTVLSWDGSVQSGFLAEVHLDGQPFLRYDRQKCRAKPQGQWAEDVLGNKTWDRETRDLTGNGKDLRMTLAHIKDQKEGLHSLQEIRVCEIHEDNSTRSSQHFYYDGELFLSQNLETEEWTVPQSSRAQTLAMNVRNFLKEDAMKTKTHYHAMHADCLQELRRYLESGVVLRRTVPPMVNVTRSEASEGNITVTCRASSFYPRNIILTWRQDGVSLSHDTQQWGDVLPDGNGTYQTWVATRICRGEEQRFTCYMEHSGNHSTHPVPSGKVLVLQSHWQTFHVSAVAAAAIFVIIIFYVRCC

[4] = target: T3, human MICA/B endogenously expressed on 786-O cells (MICA allele *008) (human, UniProt Q29983 24-331); assay: flow cytometry, tumor cells with endogenous MICA/B
T3 construct: it speaks of MICA/B, so MICB may be present as well; also called 786-0
T3 chain: T2 chain

[5] = target: T1, recombinant soluble human MICA*008 …; assay: BLI (Octet) sandwich binning on soluble MICA allele 8, row antibody captured; competitor (second antibody): MICA.40
Method: as §1

[6] = target: T1, recombinant soluble human MICA*008 …; assay: BLI (Octet) sandwich binning on soluble MICA allele 8, row antibody captured; competitor (second antibody): 24G11
Method: as §1

[7] = target: T4, recombinant soluble human MICA*002 antigen (human, UniProt Q29983 24-307); assay: SPR (Biacore 3000), antibody captured on Protein G chip, huMICA-his analyte
T4 construct: also called huIMICA-his allele *002
T4 chain: T1 chain with W14G, Y36C, V129M, E173K, S206G, R210W, I213T, T215S, R251Q
Method: (§2) Kinetics and affinity of anti-MICA/B antibodies MICA.2, 19G6, 16A5, and 71C2 towards human MICA alleles (huIMICA-his allele *002, *004, *008, and *009) were also determined on a BIACORE 3000® instrument using the following conditions: [0571] Running Buffer: HES-EP running buffer [0572] Chip: CM5 Protein G Chip Fc1: Blank. Fc2-4: ˜200Rus [0573] Ab: 5 ug/mL, 10 uL @ 10 uL/min [0574] Ag binding: 5 min association, 7 min dissociation @ 25 uL/min, [0575] Regeneration: Glycine 1.7, 10 uL @ 100 uL/min followed by 60s wash by HES-EP

[8] = target: T5, recombinant soluble human MICA*009 antigen (human, UniProt Q29983 24-307); assay: as above
T5 construct: also called huIMICA-his allele *009
T5 chain: T1 chain with G175S, I213T, R251Q
Method: as §2

[9] = target: T6, recombinant soluble human MICA*004 antigen (human, UniProt Q29983 24-307); assay: as above
T6 construct: also called huIMICA-his allele *004
T6 chain: T1 chain with L122V, G175S, T181R, I213T, T215S, W216T, R251Q
Method: as §2

simultaneous binding (0 = no, 1 = yes) [1]: 0 | simultaneous binding (0 = no, 1 = yes) [2]: 0 | EC50 [3]: 1.74 nM | EC50 [4]: 4.95 nM | simultaneous binding (0 = no, 1 = yes) [5]: 0 | simultaneous binding (0 = no, 1 = yes) [6]: 1 | Kd [7]: 27.5 nM | Kd [8]: 61.5 nM | Kd [9]: 54.6 nM
B1: MICA.2 (antibody, human IgG1, kappa, V domains shown)
VH: EVQLVESGGGLVQPGGSLRLSCAASGFTFSTYSMNWVRQAPGKGLEWVSYISYRSRTIYYADSVKGRFTISRDNARNSLYLQMNSLRDEDTAVYYCARWGYGSGGFDYWGQGTLVTVSS
VL: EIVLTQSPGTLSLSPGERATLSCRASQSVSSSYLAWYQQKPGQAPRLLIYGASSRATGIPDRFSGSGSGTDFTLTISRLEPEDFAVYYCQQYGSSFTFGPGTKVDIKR
notes: 3F5 variable regions on human IgG1f and human kappa constant regions, made in CHO-S cells; also called 3F5; recombinant antibody of 3F5

simultaneous binding (0 = no, 1 = yes) [1]: 1 | simultaneous binding (0 = no, 1 = yes) [2]: 1 | simultaneous binding (0 = no, 1 = yes) [5]: 1 | simultaneous binding (0 = no, 1 = yes) [6]: 0
B2: MICA.36 (antibody, V domains shown)
VH: QVQLVESGGGVVQPGRSLRLSCAASGFTFSNYAMHWVRQAPGEGLEWVALIWYDGSNKFYGDSVKGRFTISRDNSKNTLYLQMNSLSAEDTAVYYCAREGSGHYWGQGTLVTVSS
VL: AIQLTQSPSSLSASVGDRVTITCRASQGISSALAWYQQKPGKVPKSLIYDASSLESGVPSRFSGSGSGTDFTLTISSLQPEDFATYYCQQFNSYPITFGQGTRLEIK
notes: it says that the name implies no specific constant region; Radioiodinated in the Scatchard assay; also called MICA.36 antibody

EC50 [3]: 1.76 nM | EC50 [4]: 1.37 nM | Kd [7]: 219 nM | Kd [8]: 13.7 nM | Kd [9]: 9.78 nM
B3: 19G6 (antibody, V domains shown)
VH: B2 VH
VL: B2 VL
notes: Hybridoma antibody from human IgG transgenic mice, parent of MICA.36; also called 19G6 mAb; hybridoma 19G6

simultaneous binding (0 = no, 1 = yes) [1]: 1 | simultaneous binding (0 = no, 1 = yes) [2]: 1 | EC50 [3]: 192 nM | EC50 [4]: 147 nM | simultaneous binding (0 = no, 1 = yes) [5]: 1 | simultaneous binding (0 = no, 1 = yes) [6]: 0
B4: 24G11 (antibody, V domains shown)
VH: EVQLVQSGAEVKKPGESLKISCKGSGYSFTNYWIGWVRQMPGKGLEWLGIIHPGDSYTRYSPSFQGQVTISADKSISTAYLQWSSLKASDTAIYYCAREGIAATPFDYWGQGTLVTVSS
VL: EIVLTQSPATLSLSPGERATLSCRASQSVSSYLAWFQQKPGQAPRLLIYDASNRATGIPARFSGSGSGTDFTLTISSLEPEDFAVYYCQQRSNWPPTFGQGTKVEIK
notes: also called MICA.54; 24G11 (MICA.54)

EC50 [3]: 10.2 nM | EC50 [4]: 13.8 nM | Kd [7]: 3010 nM | Kd [8]: 1400 nM | Kd [9]: 262 nM
B5: 71C2 (antibody, V domains shown)
VH: EVQLVESGGGLVQPGRSLRLSCAASGFTFNNYAMHWVRQAPGKGLEWVSGITWNSDSIGYADSVKGRFTISRDNAKNSLYLQMNSLRAEDTALYYCAKDSVLLWFGGMDVWGQGTTVTVSS
VL: not shown
notes: Hybridoma antibody
